# Data as given in article PMC7515702.
# pKd: −log10 of the molar value.
# Legend:
# Experiment in all cases: fluorescence polarization
# Details in all cases: no NAD+, 250 mM NaCl; Kd: 5 nM probe, 12 mM HEPES pH 8.0, 250 mM NaCl, 4% glycerol, 5.7 mM beta-mercaptoethanol, 0.05 mg/ml BSA, 30 min RT. Competition: 40 nM PARP1, 20 nM probe …
# PARP1 E988K E988K = PARP1 E988K E988K (UniProt P09874)
# PARP1 H862D H862D = PARP1 H862D H862D (UniProt P09874)
# PARP1 H862A H862A = PARP1 H862A H862A (UniProt P09874)
# Chain of PARP1 H862A H862A (P09874 whole entry H862A): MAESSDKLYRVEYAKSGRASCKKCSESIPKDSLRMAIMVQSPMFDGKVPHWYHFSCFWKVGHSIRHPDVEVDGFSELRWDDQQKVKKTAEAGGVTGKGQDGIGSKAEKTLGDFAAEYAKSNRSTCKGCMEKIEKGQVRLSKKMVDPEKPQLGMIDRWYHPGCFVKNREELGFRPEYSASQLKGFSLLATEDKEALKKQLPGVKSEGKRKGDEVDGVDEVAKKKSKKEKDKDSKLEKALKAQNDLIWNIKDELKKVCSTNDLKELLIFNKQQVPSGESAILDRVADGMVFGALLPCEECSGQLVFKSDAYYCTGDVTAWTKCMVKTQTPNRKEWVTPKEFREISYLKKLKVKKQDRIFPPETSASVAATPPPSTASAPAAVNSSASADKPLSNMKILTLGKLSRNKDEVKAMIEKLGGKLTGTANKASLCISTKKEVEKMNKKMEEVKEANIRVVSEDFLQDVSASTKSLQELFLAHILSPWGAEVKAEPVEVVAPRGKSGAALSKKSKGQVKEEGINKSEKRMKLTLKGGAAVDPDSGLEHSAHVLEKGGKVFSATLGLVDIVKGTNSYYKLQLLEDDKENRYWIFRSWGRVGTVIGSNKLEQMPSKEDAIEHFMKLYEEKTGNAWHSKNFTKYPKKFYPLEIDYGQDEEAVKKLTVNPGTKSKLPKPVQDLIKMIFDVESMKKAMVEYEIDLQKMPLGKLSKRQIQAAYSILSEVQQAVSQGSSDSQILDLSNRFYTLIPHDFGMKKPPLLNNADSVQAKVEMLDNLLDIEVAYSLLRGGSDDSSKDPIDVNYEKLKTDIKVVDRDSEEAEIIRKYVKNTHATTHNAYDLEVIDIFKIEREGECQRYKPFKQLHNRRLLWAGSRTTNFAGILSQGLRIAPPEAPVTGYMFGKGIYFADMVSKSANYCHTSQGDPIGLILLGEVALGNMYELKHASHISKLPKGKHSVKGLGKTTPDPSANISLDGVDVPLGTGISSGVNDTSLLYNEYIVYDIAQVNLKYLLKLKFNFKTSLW
# PARP1 WT = PARP1 WT (UniProt P09874)
# Chain of PARP1 WT (P09874 whole entry): as the sequence (P09874 whole entry H862A) above, with A862H counted along it
# Chain of PARP1 H862D H862D (P09874 whole entry H862D): as the sequence (P09874 whole entry H862A) above, with A862D counted along it
# Chain of PARP1 E988K E988K (P09874 whole entry E988K): as the sequence (P09874 whole entry H862A) above, with A862H, E988K counted along it
sequence,measurement,setting,value
GCTGAGCTTCTGGTGAAGCTCAGCTCGCGGCAGCTGGTGCTGCCGCGA [nicked dumbbell DNA (SSB probe)],pKd,PARP1 E988K E988K,8.13
same,pKd,PARP1 H862D H862D,7.95
same,pKd,PARP1 H862A H862A,6.75
same,pKd,PARP1 WT,6.91
